Measurements as given in article PMC9082959, “Mechanism of Assembly of the Non-Covalent Spectrin Tetramerization Domain from Intrinsically Disordered Partners” (Journal of molecular biology, 2013).
Residue numbers refer to the chain shown, from its start.

Columns and labels:
Assay in all cases: ITC; β16β17 at 25–50 μM in the cell titrated with 15–20 injections to 2–2.5 eq of α0α1; one-site binding model; PBS (50 mM sodium phosphate, 150 mM NaCl, pH 7.04), 25 °C; mutants only against the wild-type partner
Settings in all cases: both partners purified
β16β17 K46A = target: T1, β16β17 K46A (human, UniProt P11277 1898-2083, K2049A)
T1 construct: erythrocyte β-spectrin, human, residues 1898-2083 (β16β17); mutant of m2; also called K2049A; source: E. coli C41(DE3), purified (Ni2+ agarose, thrombin cleavage, gel filtration)
T1 sequence (looked up): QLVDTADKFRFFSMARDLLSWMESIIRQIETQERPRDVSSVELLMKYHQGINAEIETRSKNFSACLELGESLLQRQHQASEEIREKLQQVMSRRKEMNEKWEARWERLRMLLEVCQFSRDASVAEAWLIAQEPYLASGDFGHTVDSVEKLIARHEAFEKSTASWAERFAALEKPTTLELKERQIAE

β16β17 A24G = target: T2, β16β17 A24G (human, UniProt P11277 1898-2083, A2027G)
T2 construct: erythrocyte β-spectrin, human, residues 1898-2083 (β16β17); mutant of m2; also called A2027G; source: E. coli C41(DE3), purified (Ni2+ agarose, thrombin cleavage, gel filtration)
T2 sequence (looked up): T1 sequence (looked up) with A130G, A152K

β16β17 A50G = target: T3, β16β17 A50G (human, UniProt P11277 1898-2083, A2053G)
T3 construct: erythrocyte β-spectrin, human, residues 1898-2083 (β16β17); mutant of m2; also called A2053G; source: E. coli C41(DE3), purified (Ni2+ agarose, thrombin cleavage, gel filtration)
T3 sequence (looked up): T1 sequence (looked up) with A152K, A156G

[1] = target: T4, β16β17 (erythrocyte β-spectrin residues 1898–2083), wild type (human, UniProt P11277 1898-2083)
T4 construct: erythrocyte β-spectrin, human, residues 1898-2083 (β16 plus the incomplete 17th domain); synthetic gene (GenScript) in a modified pRSETA plasmid; source: E. coli C41(DE3), purified (Ni2+ agarose, thrombin cleavage, gel filtration)
T4 sequence (looked up): T1 sequence (looked up) with A152K

β16β17 F62L = target: T5, β16β17 F62L (human, UniProt P11277 1898-2083, F2065L)
T5 construct: erythrocyte β-spectrin, human, residues 1898-2083 (β16β17); mutant of m2; also called F2065L; source: E. coli C41(DE3), purified (Ni2+ agarose, thrombin cleavage, gel filtration)
T5 sequence (looked up): T1 sequence (looked up) with A152K, F168L

β16β17 V41A = target: T6, β16β17 V41A (human, UniProt P11277 1898-2083, V2044A)
T6 construct: erythrocyte β-spectrin, human, residues 1898-2083 (β16β17); mutant of m2; also called V2044A; source: E. coli C41(DE3), purified (Ni2+ agarose, thrombin cleavage, gel filtration)
T6 sequence (looked up): T1 sequence (looked up) with V147A, A152K

B1: α0α1 (erythrocyte α-spectrin residues 2–163), wild type (domain or fragment, human, UniProt P02549 2-163, looked up)
chain: EQFPKETVVESSGPKVLETAEEIQERRQEVLTRYQSFKERVAERGQKLEDSYHLQVFKRDADDLGKWIMEKVNILTDKSYEDPTNIQGKYQKHQSLEAEVQTKSRLMSELEKTREERFTMGHSAHEETKAHIEELRHLWDLLLELTLEKGDQLLRALKFQQY
notes: synthetic gene (GenScript) in a modified pRSETA plasmid; also called α1α0; source: E. coli C41(DE3), purified (Ni2+ agarose, thrombin cleavage, gel filtration)
Q: What does the source list for B1?
A: Ka (β16β17 K46A): 520000 M⁻¹; Ka (β16β17 A24G): 242000 M⁻¹; Ka (β16β17 A50G): 163000 M⁻¹; Kd [1]: 0.4 µM; Ka (β16β17 F62L): 100000 M⁻¹; Ka (β16β17 V41A): 420000 M⁻¹
